Tests used:
[1] = system: CT100 (C-terminal 100 amino acids of APP) processing in HEK293T cells; assay: co-transfection with CT100 in HEK293T cells, ELISA, Western blot, pulse-chase; type: cell-based, human; conditions: for CTFs derived from CT100 (α-like CTF): HEK293 cells, CT100, Western blot and pulse-chase 90 minutes
Description: Expression vectors containing BACE and BACE2 cDNAs were transfected into HEK293T cells in the presence of APP751sw or CT100 (Shoji et al., Science 258: 126-129 [1992]; Lichtenthaler et al., Proc. Natl. Acad. Sci. USA 96: 3053-3058 [1999]). Transfections were performed in 24 well plates using Lipofectamine Plus (Gibco/BRL, Bethesda, Md.) and DNA concentrations were kept constant by including non-specific DNA. Expression plasmids were tested for BACE and BACE2 expression by Western blotting. Cell culture supernatants were collected 48 hours and 72 hours post-transfection, and assayed for α-NTF, β-NTF and Aβ formation. β-NTF measurement was performed as described below. α-NTF was captured like β-NTF but was detected with biotinylated 2H3 (Johnson-Wood et al., Proc. Nati. Acad. Sci. USA 94: 1550-1555 [1997]). Aβ levels were determined by an ELISA using monoclonal antibodies 266 for capture and biotinylated 3D6 for detection (see Johnson-Wood et al., [1997] ibid for antibody epitope description). Aβ42, in contrast, was captured using 21F 12 and detected with biotinylated 3D6. Cell extracts prepared 72 hour post-transfection were separated by SDS-PAGE (Novex) and probed with CT695 (Zymed) for APP and CTFs as well as with an Aβ specific monoclonal antibody WO2 (kindly provided by K. Beyreuther; Ida et al., J. Biol. Chem. 271: 22908-22914 [1996]). […]
This effect prompted investigation into whether β-secretase cleavage was required for Aβ suppression. The effects of BACE2 on the metabolism of the C-terminal 100 amino acids of APP (CT100), a construct that mimics prior β-secretase cleavage (Shoji et al., Science 258: 126-129 [1992]), was analyzed. […] Cells were readiolabeled with ^35S-methionine/cysteine for 15 minutes after which the medium containing radiolabel was removed and replaced with standard medium. […] Over this 90-minute period, samples were taken and assessed for CTFs by immunoprecipitation. […]

[2] = system: APP751sw processing in HEK293T cells; assay: co-transfection with APP751sw in HEK293T cells, ELISA of conditioned medium; type: cell-based, human
Description: Expression vectors containing BACE and BACE2 cDNAs were transfected into HEK293T cells in the presence of APP751sw or CT100 (Shoji et al., Science 258: 126-129 [1992]; Lichtenthaler et al., Proc. Natl. Acad. Sci. USA 96: 3053-3058 [1999]). Transfections were performed in 24 well plates using Lipofectamine Plus (Gibco/BRL, Bethesda, Md.) and DNA concentrations were kept constant by including non-specific DNA. Expression plasmids were tested for BACE and BACE2 expression by Western blotting. Cell culture supernatants were collected 48 hours and 72 hours post-transfection, and assayed for α-NTF, β-NTF and Aβ formation. β-NTF measurement was performed as described below. α-NTF was captured like β-NTF but was detected with biotinylated 2H3 (Johnson-Wood et al., Proc. Nati. Acad. Sci. USA 94: 1550-1555 [1997]). Aβ levels were determined by an ELISA using monoclonal antibodies 266 for capture and biotinylated 3D6 for detection (see Johnson-Wood et al., [1997] ibid for antibody epitope description). Aβ42, in contrast, was captured using 21F 12 and detected with biotinylated 3D6. Cell extracts prepared 72 hour post-transfection were separated by SDS-PAGE (Novex) and probed with CT695 (Zymed) for APP and CTFs as well as with an Aβ specific monoclonal antibody WO2 (kindly provided by K. Beyreuther; Ida et al., J. Biol. Chem. 271: 22908-22914 [1996]). Alternatively, co-transfection experiments using APP751sw and BACE or BACE2 were performed in the human neuroblastoma cell line, SK-N-MC, available from the American Type Culture Collection (ATCC).
Given the ability of BACE2 to cleave APP at the β-secretase site in vitro, we investigated the role of BACE2 in HEK293T cells relative to BACE. Variable amounts of BACE2 or BACE expression plasmids were co-transfected with constant amount of DNA encoding APP751sw substrate cDNA. Cell supernatants were collected 48 hours or 72 hours post-transfection and analyzed for α-NTF, β-NTF, total Aβ and Aβ42 as described in Genenral Methodology. Expression of APP751 sw alone led to a significant increase in β-NTF, α-NTF, total Aβ and Aβ42 (FIGS. 2a-d) compared to mock-transfected cells. […] This was most likely due to the fact that overexpressed APP751sw was in excess and was already very efficiently cleaved by endogenous BACE (compare mock versus APP751 sw alone). BACE effects on Aβ formation have been reported to be variable (Vassar et al., [1999] ibid; Sinha et al,[1999] ibid; Hussain et al., [1999] ibid; Yan et al, [1999] ibid; Lin et al,[2000] ibid) and thus it appears that additional factors such as γ-secretase might become limiting.
In an independent experiment, we addressed whether BACE2 competed with the ability of BACE to cleave APP at the β-secretase site. HEK293T cells were co-transfected with constant amounts of APP751sw and BACE, and increasing levels of BACE2. β-NTF and Aβ levels were then measured in culture supernatant (FIG. 3). […] BACE and BACE2 appeared to compete for the substrate and thus the effect on β-NTF might rather be steric. In particular, if BACE2 is a less efficient β-secretase in competing with BACE for substrate, it would reduce the overall β-secretase cleavage efficiency (see also FIG. 4). However, this reduction is insufficient to account for the Aβ reduction with BACE2.

Molecule	CTFs derived from CT100 (α-like CTF) [1]	Aβ production (total Aβ, Aβ42) with aspartate mutant ([2]; co-transfected with APP751sw or CT100)	β-NTF formation in the presence of co-transfected BACE ([2]; constant APP751sw and BACE)	total Aβ and Aβ42 levels in conditioned medium ([1]; HEK293T, co-transfected with CT100)	Aβ42 in conditioned medium ([2]; co-transfected with APP751sw)	total Aβ in conditioned medium ([2]; co-transfected with APP751sw)	α-NTF levels in conditioned medium ([2]; co-transfected with APP751sw)	β-NTF levels in conditioned medium ([2]; co-transfected with APP751sw)	total OD of α-NTF plus β-NTF ([2]; co-transfected with APP751sw, APP751sw alone ~2.59) [OD]	Aβ levels in the presence of co-transfected BACE ([2]; constant APP751sw and BACE, increasing BACE2)
BACE2 D110A: single D110A BACE2 mutant of a critical aspartate residue, made by site-directed mutagenesis (protein) ALEPALASPAGAANFLAMVDNLQGDSGRGYYLEMLIGTPPQKLQILVATGSSNFAVAGTPHSYIDTYFDTERSSTYRSKGFDVTVKYTQGSWTGFVGEDLVTIPKGFNTSFLVNIATIFESENFFLPGIKWNGILGLAYATLAKPSSSLETFFDSLVTQANIPNVFSMQMCGAGLPVAGSGTNGGSLVLGGIEPSLYKGDIWYTPIKEEWYYQIEILKLEIGGQSLNLDCREYNADKAIVDSGTTLLRLPQKVFDAVVEAVARASLIPEFSDGFWTGSQLACWTNSETPWSYFPKISIYLRDENSSRSFRITILPQLYIQPMMGAGLNYECYRFGISPSTNALVIGATVMEGFYVIFDRAQKRVGFAASPCAEIAGAAVSEISGPFSTEDVASNCVPAQSLSEPILWIVSYALMSVCGAILLVLIVLLLLPFRCQRRPRDPEVVNDESSLVRHRWK	unable to convert APP CT100 to an α-CTF-like fragment	clearly reversed the suppression of Aβ production	compete as well if not slightly more effectively with BACE to form β-NTF							
BACE2: human aspartyl protease, close homolog of BACE (SEQ ID NO: 2), expressed from pcDNA3.1(−)/BACE2 in transfected cells (protein) MGALARALLLPLLAQWLLRAAPELAPAPFTLPLRVAAATNRVVAPTPGPGTPAERHADGLALALEPALASPAGAANFLAMVDNLQGDSGRGYYLEMLIGTPPQKLQILVDTGSSNFAVAGTPHSYIDTYFDTERSSTYRSKGFDVTVKYTQGSWTGFVGEDLVTIPKGFNTSFLVNIATIFESENFFLPGIKWNGILGLAYATLAKPSSSLETFFDSLVTQANIPNVFSMQMCGAGLPVAGSGTNGGSLVLGGIEPSLYKGDIWYTPIKEEWYYQIEILKLEIGGQSLNLDCREYNADKAIVDSGTTLLRLPQKVFDAVVEAVARASLIPEFSDGFWTGSQLACWTNSETPWSYFPKISIYLRDENSSRSFRITILPQLYIQPMMGAGLNYECYRFGISPSTNALVIGATVMEGFYVIFDRAQKRVGFAASPCAEIAGAAVSEISGPFSTEDVASNCVPAQSLSEPILWIVSYALMSVCGAILLVLIVLLLLPFRCQRRPRDPEVVNDESSLVRHRWK	accumulation of the α-like CTF		reduced the ability of BACE to form β-NTF in a dose-dependent manner	dramatic suppression of total Aβ as well as Aβ42 levels	striking reduction of total Aβ and Aβ42 to levels found in mock-transfected cells	striking reduction of total Aβ and Aβ42 to levels found in mock-transfected cells	slightly higher levels of α-NTF in conditioned medium from BACE2 versus BACE transfected cells	the effect on β-NTF levels was very similar to that of BACE	~2.5	dramatic dose-dependent reduction in Aβ levels
